This passage reports SPOT signal as a fraction of Bim BH3's signal on the same receptor and array results from publication PMC4072508, “Genome-Wide Prediction and Validation of Peptides That Bind Human Prosurvival Bcl-2 Proteins” (PLoS Computational Biology, 2014).

Holding throughout (assay): peptide SPOT array, c-Myc-tagged receptor at 1 uM or 100 nM, anti-c-Myc-Cy3
For assay [1], the target named is T1, Bcl-w, Q92843.
T1 chain: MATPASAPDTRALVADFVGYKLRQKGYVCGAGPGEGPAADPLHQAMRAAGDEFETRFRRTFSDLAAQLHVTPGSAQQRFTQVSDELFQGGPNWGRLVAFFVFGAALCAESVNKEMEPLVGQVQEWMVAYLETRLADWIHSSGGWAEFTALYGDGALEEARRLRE

Assay [2] concerns the target Bcl-xL, Q07817.
The target of assay [3] is T2, Bfl-1, Q16548.
T2 chain: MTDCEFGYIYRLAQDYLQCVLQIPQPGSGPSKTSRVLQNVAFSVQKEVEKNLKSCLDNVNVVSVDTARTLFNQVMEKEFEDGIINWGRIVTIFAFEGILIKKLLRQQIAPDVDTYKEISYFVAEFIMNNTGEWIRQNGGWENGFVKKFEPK

Assay [4] deals with T3, Mcl-1, Q07820.
T3 chain: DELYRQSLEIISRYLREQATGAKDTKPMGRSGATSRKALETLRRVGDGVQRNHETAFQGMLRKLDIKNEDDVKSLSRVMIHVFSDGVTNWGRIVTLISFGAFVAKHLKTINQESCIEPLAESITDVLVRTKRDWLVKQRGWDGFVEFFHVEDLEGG

In assay [5] the target is Bcl-2, P10415.
Bcl-2, P10415, sequence (P10415 1-217): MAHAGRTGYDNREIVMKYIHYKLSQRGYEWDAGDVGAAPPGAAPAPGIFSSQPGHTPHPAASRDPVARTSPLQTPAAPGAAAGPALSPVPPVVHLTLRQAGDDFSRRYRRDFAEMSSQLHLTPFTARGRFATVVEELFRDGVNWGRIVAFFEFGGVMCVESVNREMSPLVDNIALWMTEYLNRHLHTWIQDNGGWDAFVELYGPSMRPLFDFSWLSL

Bcl-xL, Q07817, sequence (Q07817 1-209): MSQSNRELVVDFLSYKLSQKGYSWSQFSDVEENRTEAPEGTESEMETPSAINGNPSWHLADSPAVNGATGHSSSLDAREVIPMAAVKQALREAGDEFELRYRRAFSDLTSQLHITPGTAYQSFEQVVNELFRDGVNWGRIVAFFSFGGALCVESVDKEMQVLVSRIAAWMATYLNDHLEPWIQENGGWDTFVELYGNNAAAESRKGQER

As for CLSCDLCGCRLGEVGRRLYYKLGRKL [LMO2], the SPOT signal as a fraction of Bim BH3's signal on the same receptor and array was 1.8 in assay [1]; 1.18 in assay [2]; 1.61 in assay [3]; 0.86 in assay [4]; 0.59 in assay [5].
On to DLSSTFVSLALRKVGDWPLSARREKG [TTC31], for which the SPOT signal as a fraction of Bim BH3's signal on the same receptor and array was determined as 1.09 in assay [1]; 0.29 in assay [2]; 0.75 in assay [3]; 0.47 in assay [4]; 0.2 in assay [5].
VIKQRRLPDQLSKLADRIQLSGRYYL [RAPGEF2]: the SPOT signal as a fraction of Bim BH3's signal on the same receptor and array in assay [1] came out at 1.08; in assay [2], 1.08; in assay [3], 0.91; in assay [4], 0.69; in assay [5], 0.49.
Take VDVIDDHERGLIRNGRDFLLALERQG [DEDD]: the SPOT signal as a fraction of Bim BH3's signal on the same receptor and array in assay [1] is 0.02; in assay [2], 0.03; in assay [3], 0.02; in assay [4], 0.04; in assay [5], 0.01.
Take LNELYQRAKKLSKAGDNIPEEQPVAS [TMX2]: the SPOT signal as a fraction of Bim BH3's signal on the same receptor and array in assay [1] was found to be 0.07; in assay [2], 0.13; in assay [3], 0.07; in assay [4], 0.05; in assay [5], 0.02.
For the molecule ALNAQPSAEELSKIADSVNLPLDVVK [ZEB1], the SPOT signal as a fraction of Bim BH3's signal on the same receptor and array is 0.01 in assay [1]; 0.02 in assay [2]; 0.01 in assay [3]; 0.02 in assay [4]; 0.01 in assay [5].
For the molecule DGLDLPSETDLRILGCELIQAAGILL [CCNL1], the SPOT signal as a fraction of Bim BH3's signal on the same receptor and array worked out at 0.01 in assay [1]; 0.03 in assay [2]; 0.01 in assay [3]; 0.03 in assay [4]; 0.01 in assay [5].
On to PFKKMDFSRNLYDIGEQLDSEDLASL [CASP8], for which the SPOT signal as a fraction of Bim BH3's signal on the same receptor and array was 0.03 in assay [1]; 0.07 in assay [2]; 0.02 in assay [3]; 0.05 in assay [4]; 0.02 in assay [5].
For ELLRLRQHWKLRKVGDKILGDLSYRS [MED17], the SPOT signal as a fraction of Bim BH3's signal on the same receptor and array in assay [1] amounted to 1.03; in assay [2] it was 0.89; in assay [3] it was 0.78; in assay [4] it was 0.48; in assay [5], 0.33.
The corresponding values for DAIIQMIVELLKRVGDQWEEEQSLAS [C6orf222] are 0.33, 0.16, 0.06, 0.09 and 0.01.
Turning to NWFGDWSTEALYQVGKEFTSKMDLEK [DYNC1H1], the SPOT signal as a fraction of Bim BH3's signal on the same receptor and array in assay [1] was 0.03; in assay [2], 0.04; in assay [3], 0.03; in assay [4], 0.03; in assay [5], 0.02.
Regarding SQRGTDFSVLLSSAGDSFSQFRFAEE [AVEN], the SPOT signal as a fraction of Bim BH3's signal on the same receptor and array was 0.07 in assay [1]; 0.16 in assay [2]; 0.03 in assay [3]; 0.06 in assay [4]; 0.02 in assay [5].
Turning to YTCRGHIPGFLQTTADEFCFYYARKD [HHIP], the SPOT signal as a fraction of Bim BH3's signal on the same receptor and array came out at 0.1 in assay [1]; 0.07 in assay [2]; 0.06 in assay [3]; 0.04 in assay [4]; 0.02 in assay [5].
In the case of NMSNYSSSSLLSGAGKDSLVEHDEEF [KIAA0367], the SPOT signal as a fraction of Bim BH3's signal on the same receptor and array in assay [1] is 0.02; in assay [2], 0.03; in assay [3], 0.01; in assay [4] it was 0.02; in assay [5], 0.01.
On to VFERCELARTLKRLGMDGYRGISLAN [LYZ], for which the SPOT signal as a fraction of Bim BH3's signal on the same receptor and array came to 0.69 in assay [1]; 0.65 in assay [2]; 0.74 in assay [3]; 0.38 in assay [4]; 0.27 in assay [5].
With DISALTASNLLKKYAEKYSGILEGPV [FIGN], the SPOT signal as a fraction of Bim BH3's signal on the same receptor and array in assay [1] worked out at 0.13; in assay [2] it was 0.1; in assay [3], 0.33; in assay [4] it was 0.13; in assay [5], 0.06.
For the molecule GVAASDFIRSLDHCGDLALEGVFSHK [NLRC4], the SPOT signal as a fraction of Bim BH3's signal on the same receptor and array in assay [1] came out at 0.02; in assay [2], 0.02; in assay [3], 0.01; in assay [4], 0.02; in assay [5], 0.01.
On to SCMATVIHNPLKALGDQFYKEAIEHC [DPF3], for which the SPOT signal as a fraction of Bim BH3's signal on the same receptor and array in assay [1] was determined as 0.2; in assay [2], 0.13; in assay [3], 0.03; in assay [4], 0.02; in assay [5] it was 0.15.
With KWTAEEVVLWLEQLGPWASLYRERFL [BFAR], the SPOT signal as a fraction of Bim BH3's signal on the same receptor and array in assay [1] was 0.03; in assay [2] it was 0.07; in assay [3], 0.04; in assay [4], 0.05; in assay [5], 0.02.
